Measured values: US20200149053A1, “MICROORGANISMS PROGRAMMED TO PRODUCE IMMUNE MODULATORS AND ANTI-CANCER THERAPEUTICS IN TUMOR CELLS” (Synlogic Operating Company, Inc., priority 2017, published 2020)

Columns and labels:
IgG (coating control) [1] = experiment: ELISA, IgG coated plate, E. coli extract (1/2), anti-V5-HRP, TMB
IgG (coating control) [2] = experiment: ELISA, IgG coated plate, E. coli extract, anti-V5-HRP, TMB
[3] = molecular target: biotinylated-mPD1 (mouse) (UniProt Q02242); experiment: whole cell ELISA, scFv displayed on E. coli Nissle, biotinylated mPD1, streptavidin-HRP, TMB
Biotinylated IgG = experiment: whole cell ELISA, scFv displayed on E. coli Nissle, biotinylated IgG as negative control, streptavidin-HRP, TMB
NK cells = conditions: upon treatment; cited from earlier work
IgG (coating control) [4] = experiment: ELISA, IgG coated plate, bacterial supernatant
[5] = molecular target: T1, mouseCD47 (recombinant) (mouse) (UniProt Q61735); experiment: ELISA, mCD47 coated plate, bacterial supernatant
T1 sequence (looked up): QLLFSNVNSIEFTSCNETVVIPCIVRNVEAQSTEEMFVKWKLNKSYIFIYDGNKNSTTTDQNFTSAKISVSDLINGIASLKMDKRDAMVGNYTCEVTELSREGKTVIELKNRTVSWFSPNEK

[6] = molecular target: T2, secreted mCD40L1 (47-260) (mouse, UniProt P27548 47-260); experiment: ELISA, mCD40 coated plate
T2 construct: range 47-260; also called Secreted CD40-L1; SYN3366 supernatant
T2 sequence (looked up): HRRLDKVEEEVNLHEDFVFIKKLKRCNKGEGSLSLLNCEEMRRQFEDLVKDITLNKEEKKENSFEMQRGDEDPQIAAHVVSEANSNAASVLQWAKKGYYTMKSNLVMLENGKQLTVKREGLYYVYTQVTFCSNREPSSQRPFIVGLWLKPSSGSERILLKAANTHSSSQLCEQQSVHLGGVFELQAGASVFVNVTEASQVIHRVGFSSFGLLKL

anti-mCD40L antibody = experiment: CD40 ELISA binding assay, plate coated with anti-mCD40L antibody; conditions: clarified supernatant
Description: (§1) Cultures were diluted 1:100 in LB and grown shaking (200 rpm) to an optical density of 0.8, at which time the cultures were cooled down to room temperature and anhydrous tetracycline (ATC) was added to cultures at a concentration of 100 ng/mL, to induce expression of mCD40L1 and mCD40L2.
(§2) After 18 hours of induction, cells were spun down, and supernatant was collected. To generate cell free medium, the clarified supernatant was further filtered through a 0.22 micron filter to remove any remaining bacteria and placed on ice.

mCD40 = molecular target: T3, mCD40 (Mus musculus, UniProt P27512); experiment: CD40 ELISA binding assay, plate coated with mCD40; conditions: clarified supernatant; for CD40 ELISA signal, coating material IgG / CD40 ELISA signal, coating material PBS: control coating
T3 sequence (P27512 20-289): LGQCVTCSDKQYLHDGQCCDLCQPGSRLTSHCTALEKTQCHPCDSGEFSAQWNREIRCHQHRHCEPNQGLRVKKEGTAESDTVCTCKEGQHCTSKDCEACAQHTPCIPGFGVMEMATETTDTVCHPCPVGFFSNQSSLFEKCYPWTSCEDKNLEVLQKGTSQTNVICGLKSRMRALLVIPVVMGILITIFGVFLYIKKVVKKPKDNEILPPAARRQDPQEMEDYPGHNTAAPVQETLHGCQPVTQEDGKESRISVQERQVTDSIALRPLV
Description: as §1, §2

PD1 on mouse EL4 cells = molecular target: T4, PD1 on mouse EL4 cells (Mus musculus, UniProt Q02242); experiment: Flow cytometric analysis of anti-PD1-scFv binding to EL4 cells, PDL1 competition
T4 construct: EL4 are a mouse lymphoma cell line which expresses PD1 on its cell surface; endogenous in cells; host or cells: EL4 (mouse lymphoma)
T4 sequence (Q02242 25-288): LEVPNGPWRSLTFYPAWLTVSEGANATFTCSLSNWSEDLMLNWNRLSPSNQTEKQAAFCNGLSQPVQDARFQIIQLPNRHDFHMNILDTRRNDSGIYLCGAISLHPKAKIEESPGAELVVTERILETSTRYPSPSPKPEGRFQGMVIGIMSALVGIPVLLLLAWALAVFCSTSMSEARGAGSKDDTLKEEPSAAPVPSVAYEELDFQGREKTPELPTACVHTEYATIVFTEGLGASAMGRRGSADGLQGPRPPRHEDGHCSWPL
Description: To determine whether anti-PD1-scFv expressed in E. coli binds to surface PD1 on mouse EL4 cells, flow cytometric analysis was performed using EL4 cells. EL4 are a mouse lymphoma cell line which expresses PD1 on its cell surface.
EL4 cells were grown in Dulbecco's Modified Eagle's Medium (DMEM) with 10% FBS. Cells were spun down, supernatant was aspirated, pellet was resuspended in 1 nil D-PBS, transferred into chilled assay tubes (1×10^6 cells), and washed 2-3 times in D-PBS with 0.5% BSA. Cells were resuspended in PBS with 0.5% BSA, to which the purified scFv-V5 and anti-V5-FITC antibody were added and incubated for 1 hour at room temperature. Negative control left out scFv-V5. Cells were resuspended in 0.5 ml PBS and analyzed on a flow cytometer.
EL4 are a mouse lymphoma cell line which expresses PD1 on its cell surface.
EL4 cells were grown in Dulbecco's Modified Eagle's Medium (DMEM) with 10% FBS and 1% Penicillin-Streptomycin Cells were spun down, supernatant was aspirated, pellet was resuspended in 1 ml D-PBS, transferred into chilled assay tubes (1×10^6 cells), and washed 3 times in D-PBS. Cells were resuspended in D-PBS with 0.5% BSA, to which the purified scFv-V5 and anti-V5-FITC antibody were added and incubated for 1 hour at room temperature. Negative control left out secreted J43-scFv-V5. Cells were then resuspended in 0.5 ml PBS and analyzed on a flow cytometer. Results are shown in (FIG. 64).
Next, a competition assay was conducted to determine whether PDL1 could inhibit the binding of the anti-PD1-scFv secreted by the genetically engineered bacteria from binding to murine PD1. EL4 cells were grown and flow cytometry protocol was conducted essentially as described above except that PDL1 was added at various concentrations ([…]) during the incubation of the secreted anti-PD1-scFv-V5. Rat-IgG was used as a negative control of secreted scFv.

PD1 = molecular target: T5, PD1 (Mus musculus, UniProt Q02242); experiment: ELISA binding assay of bacterial extracts (J43-scFv); conditions: α-V5-HRP
T5 construct: purchased Rndsystems
T5 sequence (Q02242 25-288): T4 sequence (Q02242 25-288)
Description: E. coli comprising either tet-inducible J43-Anti-PD1-scFv-V5 or wild type controls were grown overnight in LB medium. […] Same amount of tetracycline was added to wild type control cultures.

[7] = molecular target: T6, recombinant SIRPα (Rndsystems) (mouse, UniProt P97797 32-373); experiment: flow cytometry competition on CT26 cells
T6 construct: also called recombinant mSIRPα
T6 sequence (looked up): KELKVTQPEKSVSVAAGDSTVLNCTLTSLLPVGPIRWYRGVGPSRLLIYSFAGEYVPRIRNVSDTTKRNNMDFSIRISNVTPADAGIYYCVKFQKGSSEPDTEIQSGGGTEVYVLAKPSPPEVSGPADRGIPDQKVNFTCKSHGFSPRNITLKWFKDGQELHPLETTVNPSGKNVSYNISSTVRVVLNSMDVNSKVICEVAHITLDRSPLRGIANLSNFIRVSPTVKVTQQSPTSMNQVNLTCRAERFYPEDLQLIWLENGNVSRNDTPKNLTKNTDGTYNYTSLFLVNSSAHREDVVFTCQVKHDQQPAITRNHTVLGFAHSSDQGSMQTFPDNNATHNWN

## J43-Anti-PD1-scFv-V5
IgG (coating control) [1]
  ELISA signal at 450 nm: 0.11
IgG (coating control) [2]
  ELISA signal at 450 nm: 0.13

## LppOmpA-FLAG-J43scFv-V5-HIS displayed on E. coli Nissle SYN2798
[3]
  OD450: 0.421
Biotinylated IgG
  OD450: 0.133

## recombinant human IL-15: recombinant human IL-15 of a first-in-human clinical trial
NK cells
  expansion of NK cells: 10 fold
  proliferation of γδT cells and CD8+ T cells: significantly increased

B1: secreted anti-mCD47 scFv (scFv, from a related filing)
scFv: QVKLLQSGAALVKPGASVKMSCQASGYSFTDYWVTWVKQSHGQSLEWIGEIYPSNTVTNFNDNFKGKATLTVDKSTSTAYMELSRLTSEDSAIYYCTRIGNSGYRVGWFIYWGQGTLVTVLSGGGGSGGGGSGGGGSDTVLTQSPALAVSPGERVTISCKASESVSSHMHWYQQKPGQQPKLLIYKASNLASGVPARFSGSGSGTDFTLTIDPVEADDTATYFCQQGWNGPFTFGAGTRLELKRADAAGSGELGGSGKPIPNPLLGLDSTGSGHHHHHH
IgG (coating control) [4]
  ELISA signal: 0.067
[5]
  ELISA signal: 0.527

B2: mCD40 (receptor, mouse, UniProt P27512 24-193, looked up)
chain: VTCSDKQYLHDGQCCDLCQPGSRLTSHCTALEKTQCHPCDSGEFSAQWNREIRCHQHRHCEPNQGLRVKKEGTAESDTVCTCKEGQHCTSKDCEACAQHTPCIPGFGVMEMATETTDTVCHPCPVGFFSNQSSLFEKCYPWTSCEDKNLEVLQKGTSQTNVICGLKSRMR
[6]
  binding result: binds

B3: Secreted CD40-L2: mCD40L2 (112-260), soluble form of mCD40L, secreted by SYN3367 (protein)
chain: MQRGDEDPQIAAHVVSEANSNAASVLQWAKKGYYTMKSNLVMLENGKQLTVKREGLYYVYTQVTFCSNREPSSQRPFIVGLWLKPSSGSERILLKAANTHSSSQLCEQQSVHLGGVFELQAGASVFVNVTEASQVIHRVGFSSFGLLKL
modifications: left off: small tags and cut ends
anti-mCD40L antibody
  CD40 ELISA signal, coating material Anti-mCD40L: 0.825
mCD40
  CD40 ELISA signal, coating material mCD40: 0.639
  CD40 ELISA signal, coating material IgG: 0.052
  CD40 ELISA signal, coating material PBS: 0.05

B4: J43-scFv-V5: anti-PD1 single-chain variable fragment based on J43 monoclonal antibody, V5 tagged, expressed in E. coli (protein)
scFv: MQLEVRLLESGGGLVKPEGSLKLSCVASGFTFSDYFMSWVRQAPGKGLEWVAHIYTKSYNYATYYSGSVKGRFTISRDDSRSMVYLQMNNLRTEDTATYYCTRDGSGYPSLDFWGQGTQVTVSSGGGGSGGGGSGGGGSYELTQPPSASVNVGETVKITCSGDQLPKYFADWFHQRSDQTILQVIYDDNKRPSGIPERISGSSSGTTATLTIRDVRAEDEGDYYCFSGYVDSDSKLYVFGSGTQLTVLGKGELNSKLEGKPIPNPLLGLDSTRTGHHHHHH
PD1 on mouse EL4 cells; PDL1 added at various concentrations
  PDL1 competition against binding to mPD1 on EL4 cells: PDL1 competed in a dose dependent manner
PD1 on mouse EL4 cells; purified scFv, anti-V5-FITC
  binding to surface PD1 on EL4 cells (flow cytometry): population shift is observed
PD1 on mouse EL4 cells; secreted scFv, increasing amounts
  staining of EL4 cells with different amounts of secreted scFv: dose-dependent staining of the EL4 cells was observed
PD1 on mouse EL4 cells; secreted scFv, anti-V5-FITC
  binding to PD1 on EL4 cells (flow cytometry): population shift is observed
PD1; bacterial extract (1/2)
  Signal intensity at 450 nm, IgG coating: 0.11
  Signal intensity at 450 nm, PBS coating: 0.10
  Signal intensity at 450 nm, mPD1 coating: 0.90
PD1; bacterial extract
  Signal intensity at 450 nm, IgG coating: 0.13
  Signal intensity at 450 nm, PBS coating: 0.11
  Signal intensity at 450 nm, mPD1 coating: 1.41

B5: CD47 on mouse CT26 cells (receptor, UniProt Q61735 19-303, looked up)
chain: QLLFSNVNSIEFTSCNETVVIPCIVRNVEAQSTEEMFVKWKLNKSYIFIYDGNKNSTTTDQNFTSAKISVSDLINGIASLKMDKRDAMVGNYTCEVTELSREGKTVIELKNRTVSWFSPNEKILIVIFPILAILLFWGKFGILTLKYKSSHTNKRIILLLVAGLVLTVIVVVGAILLIPGEKPVKNASGLGLIVISTGILILLQYNVFMTAFGMTSFTIAILITQVLGYVLALVGLCLCIMACEPVHGPLLISGLGIIALAELLGLVYMKFVASNQRTIQPPRNR
notes: whole, on cells; also called murine CD47 on CT26 cells
[7]
  binding result: binds

B6: Secreted CD40-L1: mCD40L1 (47-260), extracellular portion of mCD40L, secreted by SYN3366 (protein)
chain: T2 sequence (looked up)
modifications: left off: small tags and cut ends
anti-mCD40L antibody
  CD40 ELISA signal, coating material Anti-mCD40L: 0.394
mCD40
  CD40 ELISA signal, coating material mCD40: 0.231
  CD40 ELISA signal, coating material IgG: 0.052
  CD40 ELISA signal, coating material PBS: 0.049
